Assay results taken from US20210371489A1, “SITE 2 SINGLE-CHAIN INSULIN ANALOGUES” (Case Western Reserve University, priority 2018, published 2021).
Substitutions are numbered along the chain they refer to. One block for each molecule: values may come before it.

Tests used:
[1] = biological target: insulin receptor (IR) (Homo sapiens, UniProt P06213); conditions: cited from earlier work
[2] = system: diabetic Sprague-Dawley rats; conditions: diabetic (streptozotocin) Sprague-Dawley rats; cited from earlier work
[3] = biological target: T1, FLAG epitope-tagged holoreceptor of human type 1 insulin-like growth factor receptor (human, UniProt P08069 31-1367, limits assumed); assay: ratio of dissociation constants from competitive displacement of 125I-IGF-I on plate-captured FLAG-tagged hIGFR; relative to insulin lispro
T1 construct: mature; Holoreceptor captured on 96 well plates coated with anti-FLAG monoclonal antibody; The natural receptor is processed from one precursor into alpha and beta chains; also called hIGFR; IGF-1R
Excerpt: Cross-reactivity of the single-chain insulin analogues with IGF-1R was studied using a FLAG epitope-tagged holoreceptor to human type 1 insulin-like growth factor receptor (hIGFR) bound to 96 well plates coated with anti-FLAG monoclonal antibody. […] This is used as a marker for mitogenic potential, where less IGF-R affinity is interpreted as lower mitogenic potential.

Molecule: 2-F-PheB24-DKP-insulin: derivative of DKP-insulin containing ortho-monofluoro-phenylalanine at position B24
receptor-binding affinity relative to KP-insulin [1]: ca. 35(±5) % | in vivo potency [2]: potency and duration of signaling are enhanced

B1: single-chain insulin EA8, EA14, QA17, PE, EAGPRR (ligand)
chain: FVNQHLCGSHLVEALYLVCGERGFFYTPETEAGPRRGIVEQCCESICSLEQLQNYCN
notes: Single-chain insulin analogue (B domain, 6-residue C domain, A domain)
IGF1-R (Rel. Aff.) [3]: 11%

B5: single-chain insulin EA8, EA14, RA17, EP, EAGPRR (ligand)
chain: B1 chain with P28E, E29P, Q53R
IGF1-R (Rel. Aff.) [3]: 5%

Now from value to molecule:

IGF1-R (Rel. Aff.) [3]: 16%
B2: single-chain insulin HA8, EA14, FB17, PE, EEGPRR (ligand)
chain: B1 chain with L17F, A32E, E44H, Q53E

IGF1-R (Rel. Aff.) [3]: 2%
B3: single-chain insulin HA8, EA14, NB17, PE, EEGPRR (ligand)
chain: B1 chain with L17N, A32E, E44H, Q53E

IGF1-R (Rel. Aff.) [3]: 25%
B4: single-chain insulin EA8, EA14, RA17, PE, EAGPRR (ligand)
chain: B1 chain with Q53R

IGF1-R (Rel. Aff.) [3]: 18%
B6: single-chain insulin HA8, EA14, QA17, PE, EAGPRR (ligand)
chain: B1 chain with E44H
